B1: HuUGT6: UDP-glycosyltransferase from Helichrysum umbraculigerum, recombinantly expressed in E. coli (protein, listed as Helichrysum umbraculigerum)
chain: MTQKQMQMQPHFLLVTYPAQGHINPSLQFAERLIRLGVKVTFTTTVSAYRRMSKAGNISEFLNFAAFSDGFDDGFNFETDDHGLFLTQLRSRGKDSLKETILSNAKNGTPISCLVYTLLLPWAPEVARGLNVPSAFLWIQPASVLRLYYYYFNGYNELIGDDCNEPSWSIQLPGLPLLKS
B2: HuUGT13: UDP-glycosyltransferase from Helichrysum umbraculigerum, recombinantly expressed in E. coli (protein, listed as Helichrysum umbraculigerum)
chain: MSLVTNNPHLLVYPLPTSGHIIPLLDLTDLLLRRGLTITVVISTTDLTLLDTLLSSHPTSLHKLYFPDPEIGPSSHPVIARIIATQKLFDPIVKWFESHPSPPVAIISDFFLGWTNELASRLGIRRVVFSPSGALGHSILQSLWRDVAEINAKNVDGNGNYSISFTDIPNSPEFHWWQLSQLLRVHREGDPDFEFFRNGMLANTKSWGIVYNTFERIEKVYIDHVKKQIGHDRVWAIGPLLPEEHGPVGSTARGGSSVVPPHDLLTWLDKKPHDSVVYICFGSRLTLSEKQMSALASALELSNVDFILCVKASGSSFIPSGFEDRVVGRGFVIKGWAPQLAILRHRAVGSFVTHCGWNSTLEGVSSGVMMLTWPMGADQYANAKLLVDQLGVGKRVCEGGPESVPDSTELARLLEESLSGDTSERVKVKELSREANTAVKEGTSIRDLNMFVNLLSEL
B3: HuUGT11: UDP-glycosyltransferase from Helichrysum umbraculigerum, recombinantly expressed in E. coli (protein, listed as Helichrysum umbraculigerum)
chain: MGSLKKGAHILIFPFPAQGHMLPLLDLTHHLATNGLTITILVTPKNLPILNPLLSSSPNIQPLVFPFPPHPRLPPHVENVKDIGNHANVPITNSLAKLQDQIIQWFNSHHNPPVAIISDFFLGWTQHLANKLGIPRVGFFSSGAYLTAVLDYVCHNIKTVRSQEETVFHDLPNSPCFKFEHLPGLAQIYKESDPEWELVLDGHIANGLSWGWIVNTFDGLESRYMEYLTKKMGVGRVFGVGPVNLLNGSDPMTRGKSESGSDSGVLNWLDGKPDGSVLYVCFGSQKFLTNDQMEGLSIGLEQSGVHYVWVVKDEQGDAIRSGSGRGLVVTGWAPQVSILGHGAVGGFLSHCGWNSVLEAIVNGVMILAWPMEADQFVNAKLLVDDHGIGVWVCEGPNTVPDSTELARKIGESMSTDKSEKVKAKEMKNKANEAVKEGGSSSMELSRLVKELSNFETNGP

Legend:
Format in all cases: biochemical
[1] = In vitro assays with purified UGTs and an array of cannabinoid substrates; settings: purified enzymes
Procedure: (§1) Selected UGT genes from Helichrysum were individually cloned into the pET28b vector and expressed in E. coli BL21 (DE3) cells. Bacterial starters were grown overnight in LB medium at 37° C., diluted in fresh LB 1:100, and re-incubated at 37° C. When cultures reached A600=0.6, protein expression was induced with 400 μM of isopropyl-1-thio-β-d-galactopyranoside (IPTG) overnight at 15° C. Bacterial cells were lysed by sonication in 50 mM Tris-HCl pH 8, 0.5 mM phenylmethylsulfonyl fluoride (PMSF, Sigma Aldrich) solution in isopropanol, 10% glycerol and protease inhibitor cocktail (Sigma Aldrich), and 1 mg ml-1 lysozyme (Sigma Aldrich). The whole-cell extract was either kept for functional activity or used for protein purification. Purification of proteins was performed on Ni-NTA agarose beads (Adar Biotech). The proteins were eluted with 200 mM imidazole (Fluka) in buffer containing 50 mM NaH2PO4, pH 8 and 0.5 M NaCl. Protein concentration of the eluted fractions was measured with Pierce™ 660 nm protein assay reagent (Thermo Scientific).
Recombinant UGT assays using different aromatic substrates were performed by mixing 1.5 μl of the UDP solution (80 mM, final concentration: 2.5 mM), 27.5 μl Tris buffer (100 mM), 1 μl of each of the substrates (50 mM, final concentration: 1 mM) and 20 μl of the lysate enzyme solution. The reactions were incubated at 30° C. for 1 h. To stop the reactions, 50 μl methanol were added to each tube, vortexed for 10 s, centrifuged at maximum speed for 10 min, and then the supernatant was recovered and used for UPLC-qTOF analysis. The assay with the purified UGTs was performed by mixing 2 μl of the cannabinoid acceptors (OA, DHSA, CBGA, heliCBGA, CBDA, A9-THCA, CBCA, olivetol, CBG, CBD or 49-THC, hexanoylphloroglucinol, naringenin chalcone or pinocembrin chalcone) in the presence of 1.5 μl UDP 80 mM, 46.5 μl Tris buffer (100 mM, pH 8.0) and 1 μl of each enzyme. To stop the reactions, 100 μl methanol was added to each tube, and the compounds were extracted and analyzed as previously described. Kinetics assays were performed with the purified enzymes (1.5 μg/μl) dissolved in 45 μl Tris buffer (100 mM, pH 8.0) and substrates were added using varying (0.5 μM-3 mM) and constant (1 mM) concentrations of OA and UDP and the total reaction volume was 50 μl. To stop the reactions, 100 μl methanol was added to each tube, and the compounds were extracted and analyzed as previously described.
Next, the inventors recombinantly expressed eleven of the thirteen UGTs from Helichrysum in E. coli and used the crude lysate to examine the activity of the proteins using OA, CBGA, and heliCBGA in a reaction including UDP-Glc as the sugar donor. […] The inventors screened the LC/HRMS chromatograms for glucosylated and diglucosylated products according to the theoretical m/z values. […] All the enzymes were active with varying substrate specificity and products produced.

[2] = UGT enzyme assay with crude E. coli lysates, UDP-Glc as sugar donor; settings: crude lysate, substrates OA, CBGA, heliCBGA, FIG. 8
Procedure: as §1, with “The whole-cell extract was either kept for functional activity or used for protein purification. Purification of proteins was performed on Ni-NTA agarose beads (Adar Biotech). The proteins were eluted with 200 mM imidazole (Fluka) in buffer containing 50 mM NaH2PO4, pH 8 and 0.5 M NaCl.” left out
Recombinant UGT assays using different aromatic substrates were performed by mixing 1.5 μl of the UDP solution (80 mM, final concentration: 2.5 mM), 27.5 μl Tris buffer (100 mM), 1 μl of each of the substrates (50 mM, final concentration: 1 mM) and 20 μl of the lysate enzyme solution. […] To stop the reactions, 100 μl methanol was added to each tube, and the compounds were extracted and analyzed as previously described. […] […]

[3] = Steady state kinetics assays of purified UGTs with OA and UDP; settings: OA 0.5 μM-3 mM varying, UDP 1 mM constant; compared HuUGT11, HuUGT13, OsUGT, SrUGT; FIG. 12
Procedure: FIGS. 12A-12B include curves and a table showing comparison of steady state kinetic analysis of HuUGT11 and HuUGT13 versus OsUGT and SrUGT, with olivetolic acid and UDP-glc. (12A) The Michaelis-Menten Km value of each enzyme was calculated using varying (0.5 μM-3 mM) and constant (1 mM) concentrations of olivetolic acid and […] (n=3 technically independent samples; measurements were plotted individually). Since there was no analytical standard available for Glc-OA, V0 was calculated using the calibration curve of OA. (12B) A summary of the results presented in 12A. V0 and Vmax were calculated using the calibration curve of OA since there was no analytical standard available for Glc-OA.
Recombinant UGT assays using different aromatic substrates were performed by mixing 1.5 μl of the UDP solution (80 mM, final concentration: 2.5 mM), 27.5 μl Tris buffer (100 mM), 1 μl of each of the substrates (50 mM, final concentration: 1 mM) and 20 μl of the lysate enzyme solution. The reactions were incubated at 30° C. for 1 h. […] To stop the reactions, 100 μl methanol was added to each tube, and the compounds were extracted and analyzed as previously described. […] To stop the reactions, 100 μl methanol was added to each tube, and the compounds were extracted and analyzed as previously described.

| Molecule | diglucosylation of acid compounds ([1]; UDP-glc, FIG. 11) | activity of lysates containing HuUGTs on the different substrates [2] | activity on the cannabinoid intermediates [1] | activity on the prenylated compounds [1] | catalytic performance in kinetics assays versus the other enzymes [3] |
| --- | --- | --- | --- | --- | --- |
| B1 | only observed in case of HuUGT6 | – | – | – | – |
| B2 | – | showed activity | highly active | almost inactive | – |
| B3 | – | showed activity | highly active | almost inactive | impressive catalytic advantage |

— patent publication US20250207145A1, “URIDINE DIPHOSPHATE-GLYCOSYLTRANSFERASE AND A […], TISSUE, AND ORGANISM COMPRISING SAME” (YEDA RESEARCH AND DEVELOPMENT CO. LTD., priority 2022, published 2025)
